# Where two headings read alike, the source gives them in different places.
# Assays:
# [1] = target: recombinant angiotensin-converting enzyme 2 (ACE2) (UniProt Q9BYF1); assay: electrochemical impedance spectroscopy
# [2] = target: recombinant angiotensin-converting enzyme 2 (ACE2) (UniProt Q9BYF1); assay: electrochemical impedance spectroscopy; remark: listed apart in the source
# recombinant angiotensin-converting enzyme 2 (ACE2), sequence (Q9BYF1 18-740): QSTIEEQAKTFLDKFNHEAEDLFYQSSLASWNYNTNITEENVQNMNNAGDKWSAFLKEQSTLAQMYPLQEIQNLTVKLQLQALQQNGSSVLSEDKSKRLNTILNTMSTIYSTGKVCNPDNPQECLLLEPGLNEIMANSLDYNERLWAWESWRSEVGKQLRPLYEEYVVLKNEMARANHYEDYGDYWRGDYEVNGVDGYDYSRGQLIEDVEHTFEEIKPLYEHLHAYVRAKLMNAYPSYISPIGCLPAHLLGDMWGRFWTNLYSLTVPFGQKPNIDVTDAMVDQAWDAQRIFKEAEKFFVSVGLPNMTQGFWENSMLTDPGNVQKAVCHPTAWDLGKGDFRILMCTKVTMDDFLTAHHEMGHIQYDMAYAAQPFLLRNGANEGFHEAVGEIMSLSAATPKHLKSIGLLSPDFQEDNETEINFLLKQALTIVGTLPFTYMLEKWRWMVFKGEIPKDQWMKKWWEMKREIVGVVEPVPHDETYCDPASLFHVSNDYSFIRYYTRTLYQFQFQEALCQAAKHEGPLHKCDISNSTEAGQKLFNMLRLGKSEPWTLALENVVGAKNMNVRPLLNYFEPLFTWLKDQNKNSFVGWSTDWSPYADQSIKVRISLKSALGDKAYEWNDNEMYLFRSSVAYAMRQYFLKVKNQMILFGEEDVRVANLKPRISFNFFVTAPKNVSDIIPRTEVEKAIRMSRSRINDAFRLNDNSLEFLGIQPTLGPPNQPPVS
substance,measurement,setting,value
recombinant SARS-CoV-2 S-protein receptor-binding domain (from UniProt P0DTC2) (domain or fragment; other documents disagree on this pair),EC50,[1],5.1 µM
same,EC50,[2],1.74 µM
